According to patent US20220204580A1 (AstraZeneca / MedImmune, published 2022):
One block for each binder: values may come before it. Numbered stars: 1 amine (or outer) side, 2 acyl side, 3 side chain; on linkers, the order of the positions; unused ones are H or OH. Bridge positions count the residues as written; N and C are the ends. Square brackets hold non-standard residues; d marks the D form. Side chains are listed from the residue outwards. Ends that are not written are not given here. * marks the point of attachment. C18 diacid = O=C(O)CCCCCCCCCCCCCCCCC(=O)*; γGlu = O=C(O)[C@H](CCC(=O)[*:2])N[*:1]; αMeF = C[C@](N)(Cc1ccccc1)C(=O)O; Dab = NCC[C@H](N)C(=O)O; AEEA = NCCOCCOCC(=O)O; Aib = CC(C)(N)C(=O)O

Columns and labels:
[1] = molecular target: T1, human calcitonin receptor (human, UniProt P30988 25-474); assay: cell-based or functional assay
T1 sequence (looked up): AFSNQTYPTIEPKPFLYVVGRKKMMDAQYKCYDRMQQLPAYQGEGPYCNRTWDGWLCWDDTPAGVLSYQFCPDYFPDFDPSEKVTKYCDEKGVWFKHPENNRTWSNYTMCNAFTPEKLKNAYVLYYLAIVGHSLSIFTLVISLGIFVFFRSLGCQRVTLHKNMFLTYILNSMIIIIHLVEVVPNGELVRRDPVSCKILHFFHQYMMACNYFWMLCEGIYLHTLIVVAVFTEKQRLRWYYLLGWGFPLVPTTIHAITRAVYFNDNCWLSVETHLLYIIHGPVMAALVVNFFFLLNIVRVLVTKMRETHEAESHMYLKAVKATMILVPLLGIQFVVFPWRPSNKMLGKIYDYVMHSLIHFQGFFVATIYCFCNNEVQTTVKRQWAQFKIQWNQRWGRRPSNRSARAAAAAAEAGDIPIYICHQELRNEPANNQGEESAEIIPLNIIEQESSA

[2] = molecular target: T2, human amylin receptor (calcitonin receptor co-expressed with receptor activity modifying protein, RAMP3) (human, UniProt P30988 25-474; O60896 24-148); assay: cell-based or functional assay
T2 sequence (looked up) 1: T1 sequence (looked up)
T2 sequence (looked up) 2: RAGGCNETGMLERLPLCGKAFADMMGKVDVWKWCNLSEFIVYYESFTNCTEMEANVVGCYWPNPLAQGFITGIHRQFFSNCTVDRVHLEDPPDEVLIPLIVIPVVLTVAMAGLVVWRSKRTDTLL

B3: Peptide 17 (SEQ ID NO: 17) (peptide)
peptide: K([AEEA-AEEA-γGlu-C18 diacid])CNTATCATQRLANFLRHSSNN[αMeF]GPILPPTEVGSNTY-NH2
modifications: disulfide 2-7; N-terminus assumed
SMILES: CC[C@H](C)[C@H](NC(=O)[C@@H]1CCCN1C(=O)CNC(=O)[C@](C)(Cc1ccccc1)NC(=O)[C@H](CC(N)=O)NC(=O)[C@H](CC(N)=O)NC(=O)[C@H](CO)NC(=O)[C@H](CO)NC(=O)[C@H](Cc1c[nH]cn1)NC(=O)[C@H](CCCNC(=N)N)NC(=O)[C@H](CC(C)C)NC(=O)[C@H](Cc1ccccc1)NC(=O)[C@H](CC(N)=O)NC(=O)[C@H](C)NC(=O)[C@H](CC(C)C)NC(=O)[C@H](CCCNC(=N)N)NC(=O)[C@H](CCC(N)=O)NC(=O)[C@@H](NC(=O)[C@H](C)NC(=O)[C@@H]1CSSC[C@H](NC(=O)[C@@H](N)CCCCNC(=O)COCCOCCNC(=O)COCCOCCNC(=O)CC[C@H](NC(=O)CCCCCCCCCCCCCCCCC(=O)O)C(=O)O)C(=O)N[C@@H](CC(N)=O)C(=O)N[C@@H]([C@@H](C)O)C(=O)N[C@@H](C)C(=O)N[C@@H]([C@@H](C)O)C(=O)N1)[C@@H](C)O)C(=O)N[C@@H](CC(C)C)C(=O)N1CCC[C@H]1C(=O)N1CCC[C@H]1C(=O)N[C@H](C(=O)N[C@@H](CCC(=O)O)C(=O)N[C@H](C(=O)NCC(=O)N[C@@H](CO)C(=O)N[C@@H](CC(N)=O)C(=O)N[C@H](C(=O)N[C@@H](Cc1ccc(O)cc1)C(N)=O)[C@@H](C)O)C(C)C)[C@@H](C)O
EC50 (cAMP production) [1]: 7.08 nM
EC50 (cAMP production) [2]: 0.365 nM
Ratio (EC50 hCTR / EC50 hAMYR3) [2]: 19

B5: Peptide 151 (SEQ ID NO: 151) (peptide)
peptide: K([γGlu-C18 diacid])CNTATCATQRLANFL[Aib]HSSNNFGPI[dL]PPTNVGSNTY-NH2
modifications: disulfide 2-7; N-terminus assumed
SMILES: CC[C@H](C)[C@H](NC(=O)[C@@H]1CCCN1C(=O)CNC(=O)[C@H](Cc1ccccc1)NC(=O)[C@H](CC(N)=O)NC(=O)[C@H](CC(N)=O)NC(=O)[C@H](CO)NC(=O)[C@H](CO)NC(=O)[C@H](Cc1c[nH]cn1)NC(=O)C(C)(C)NC(=O)[C@H](CC(C)C)NC(=O)[C@H](Cc1ccccc1)NC(=O)[C@H](CC(N)=O)NC(=O)[C@H](C)NC(=O)[C@H](CC(C)C)NC(=O)[C@H](CCCNC(=N)N)NC(=O)[C@H](CCC(N)=O)NC(=O)[C@@H](NC(=O)[C@H](C)NC(=O)[C@@H]1CSSC[C@H](NC(=O)[C@@H](N)CCCCNC(=O)CC[C@H](NC(=O)CCCCCCCCCCCCCCCCC(=O)O)C(=O)O)C(=O)N[C@@H](CC(N)=O)C(=O)N[C@@H]([C@@H](C)O)C(=O)N[C@@H](C)C(=O)N[C@@H]([C@@H](C)O)C(=O)N1)[C@@H](C)O)C(=O)N[C@H](CC(C)C)C(=O)N1CCC[C@H]1C(=O)N1CCC[C@H]1C(=O)N[C@H](C(=O)N[C@@H](CC(N)=O)C(=O)N[C@H](C(=O)NCC(=O)N[C@@H](CO)C(=O)N[C@@H](CC(N)=O)C(=O)N[C@H](C(=O)N[C@@H](Cc1ccc(O)cc1)C(N)=O)[C@@H](C)O)C(C)C)[C@@H](C)O
EC50 (cAMP production) [1]: 0.898 nM
EC50 (cAMP production) [2]: 0.061 nM
Ratio (EC50 hCTR / EC50 hAMYR3) [2]: 14.7

B6: Peptide 150 (SEQ ID NO: 150) (peptide)
peptide: K([γGlu-C18 diacid])CNTATCATQRLANFL[Aib]HSS[Dab]NFGPILPPTNVGSNTY-NH2
modifications: disulfide 2-7; N-terminus assumed
SMILES: CC[C@H](C)[C@H](NC(=O)[C@@H]1CCCN1C(=O)CNC(=O)[C@H](Cc1ccccc1)NC(=O)[C@H](CC(N)=O)NC(=O)[C@H](CCN)NC(=O)[C@H](CO)NC(=O)[C@H](CO)NC(=O)[C@H](Cc1c[nH]cn1)NC(=O)C(C)(C)NC(=O)[C@H](CC(C)C)NC(=O)[C@H](Cc1ccccc1)NC(=O)[C@H](CC(N)=O)NC(=O)[C@H](C)NC(=O)[C@H](CC(C)C)NC(=O)[C@H](CCCNC(=N)N)NC(=O)[C@H](CCC(N)=O)NC(=O)[C@@H](NC(=O)[C@H](C)NC(=O)[C@@H]1CSSC[C@H](NC(=O)[C@@H](N)CCCCNC(=O)CC[C@H](NC(=O)CCCCCCCCCCCCCCCCC(=O)O)C(=O)O)C(=O)N[C@@H](CC(N)=O)C(=O)N[C@@H]([C@@H](C)O)C(=O)N[C@@H](C)C(=O)N[C@@H]([C@@H](C)O)C(=O)N1)[C@@H](C)O)C(=O)N[C@@H](CC(C)C)C(=O)N1CCC[C@H]1C(=O)N1CCC[C@H]1C(=O)N[C@H](C(=O)N[C@@H](CC(N)=O)C(=O)N[C@H](C(=O)NCC(=O)N[C@@H](CO)C(=O)N[C@@H](CC(N)=O)C(=O)N[C@H](C(=O)N[C@@H](Cc1ccc(O)cc1)C(N)=O)[C@@H](C)O)C(C)C)[C@@H](C)O
EC50 (cAMP production) [1]: 4.18 nM
EC50 (cAMP production) [2]: 0.179 nM
Ratio (EC50 hCTR / EC50 hAMYR3) [2]: 23.4

Continued, values first:

EC50 (cAMP production) [1]: 83.8 nM
EC50 (cAMP production) [2]: 3.75 nM
Ratio (EC50 hCTR / EC50 hAMYR3) [2]: 22.3
B1: Peptide 156 (SEQ ID NO: 156) (peptide)
peptide: K([γGlu-C18 diacid])KCNTATCATQRLA[Dab]FL[Aib]HSSNNFGPILPPTEVGSNTY-NH2
modifications: disulfide 3-8; N-terminus assumed
SMILES: CC[C@H](C)[C@H](NC(=O)[C@@H]1CCCN1C(=O)CNC(=O)[C@H](Cc1ccccc1)NC(=O)[C@H](CC(N)=O)NC(=O)[C@H](CC(N)=O)NC(=O)[C@H](CO)NC(=O)[C@H](CO)NC(=O)[C@H](Cc1c[nH]cn1)NC(=O)C(C)(C)NC(=O)[C@H](CC(C)C)NC(=O)[C@H](Cc1ccccc1)NC(=O)[C@H](CCN)NC(=O)[C@H](C)NC(=O)[C@H](CC(C)C)NC(=O)[C@H](CCCNC(=N)N)NC(=O)[C@H](CCC(N)=O)NC(=O)[C@@H](NC(=O)[C@H](C)NC(=O)[C@@H]1CSSC[C@H](NC(=O)[C@H](CCCCN)NC(=O)[C@@H](N)CCCCNC(=O)CC[C@H](NC(=O)CCCCCCCCCCCCCCCCC(=O)O)C(=O)O)C(=O)N[C@@H](CC(N)=O)C(=O)N[C@@H]([C@@H](C)O)C(=O)N[C@@H](C)C(=O)N[C@@H]([C@@H](C)O)C(=O)N1)[C@@H](C)O)C(=O)N[C@@H](CC(C)C)C(=O)N1CCC[C@H]1C(=O)N1CCC[C@H]1C(=O)N[C@H](C(=O)N[C@@H](CCC(=O)O)C(=O)N[C@H](C(=O)NCC(=O)N[C@@H](CO)C(=O)N[C@@H](CC(N)=O)C(=O)N[C@H](C(=O)N[C@@H](Cc1ccc(O)cc1)C(N)=O)[C@@H](C)O)C(C)C)[C@@H](C)O

EC50 (cAMP production) [1]: 1.54 nM
EC50 (cAMP production) [2]: 0.574 nM
Ratio (EC50 hCTR / EC50 hAMYR3) [2]: 2.7
B2: Peptide 154 (SEQ ID NO: 154) (peptide)
peptide: K([γGlu-C18 diacid])KCNTATCATQRLANFL[Aib]HSSGNFGPILPPTNVGSNTY-NH2
modifications: disulfide 3-8; N-terminus assumed
SMILES: CC[C@H](C)[C@H](NC(=O)[C@@H]1CCCN1C(=O)CNC(=O)[C@H](Cc1ccccc1)NC(=O)[C@H](CC(N)=O)NC(=O)CNC(=O)[C@H](CO)NC(=O)[C@H](CO)NC(=O)[C@H](Cc1c[nH]cn1)NC(=O)C(C)(C)NC(=O)[C@H](CC(C)C)NC(=O)[C@H](Cc1ccccc1)NC(=O)[C@H](CC(N)=O)NC(=O)[C@H](C)NC(=O)[C@H](CC(C)C)NC(=O)[C@H](CCCNC(=N)N)NC(=O)[C@H](CCC(N)=O)NC(=O)[C@@H](NC(=O)[C@H](C)NC(=O)[C@@H]1CSSC[C@H](NC(=O)[C@H](CCCCN)NC(=O)[C@@H](N)CCCCNC(=O)CC[C@H](NC(=O)CCCCCCCCCCCCCCCCC(=O)O)C(=O)O)C(=O)N[C@@H](CC(N)=O)C(=O)N[C@@H]([C@@H](C)O)C(=O)N[C@@H](C)C(=O)N[C@@H]([C@@H](C)O)C(=O)N1)[C@@H](C)O)C(=O)N[C@@H](CC(C)C)C(=O)N1CCC[C@H]1C(=O)N1CCC[C@H]1C(=O)N[C@H](C(=O)N[C@@H](CC(N)=O)C(=O)N[C@H](C(=O)NCC(=O)N[C@@H](CO)C(=O)N[C@@H](CC(N)=O)C(=O)N[C@H](C(=O)N[C@@H](Cc1ccc(O)cc1)C(N)=O)[C@@H](C)O)C(C)C)[C@@H](C)O

EC50 (cAMP production) [1]: 3.93 nM
EC50 (cAMP production) [2]: 0.329 nM
Ratio (EC50 hCTR / EC50 hAMYR3) [2]: 11.9
B4: Peptide 155 (SEQ ID NO: 155) (peptide)
peptide: K([γGlu-C18 diacid])CNTATCATQRLANFL[Aib]HSSNNFGPILPPTRVGSNTY-NH2
modifications: disulfide 2-7; N-terminus assumed
SMILES: CC[C@H](C)[C@H](NC(=O)[C@@H]1CCCN1C(=O)CNC(=O)[C@H](Cc1ccccc1)NC(=O)[C@H](CC(N)=O)NC(=O)[C@H](CC(N)=O)NC(=O)[C@H](CO)NC(=O)[C@H](CO)NC(=O)[C@H](Cc1c[nH]cn1)NC(=O)C(C)(C)NC(=O)[C@H](CC(C)C)NC(=O)[C@H](Cc1ccccc1)NC(=O)[C@H](CC(N)=O)NC(=O)[C@H](C)NC(=O)[C@H](CC(C)C)NC(=O)[C@H](CCCNC(=N)N)NC(=O)[C@H](CCC(N)=O)NC(=O)[C@@H](NC(=O)[C@H](C)NC(=O)[C@@H]1CSSC[C@H](NC(=O)[C@@H](N)CCCCNC(=O)CC[C@H](NC(=O)CCCCCCCCCCCCCCCCC(=O)O)C(=O)O)C(=O)N[C@@H](CC(N)=O)C(=O)N[C@@H]([C@@H](C)O)C(=O)N[C@@H](C)C(=O)N[C@@H]([C@@H](C)O)C(=O)N1)[C@@H](C)O)C(=O)N[C@@H](CC(C)C)C(=O)N1CCC[C@H]1C(=O)N1CCC[C@H]1C(=O)N[C@H](C(=O)N[C@@H](CCCNC(=N)N)C(=O)N[C@H](C(=O)NCC(=O)N[C@@H](CO)C(=O)N[C@@H](CC(N)=O)C(=O)N[C@H](C(=O)N[C@@H](Cc1ccc(O)cc1)C(N)=O)[C@@H](C)O)C(C)C)[C@@H](C)O
